Experimental findings from the nanobody polyreactivity screen of Harvey et al. (2022) are described below.

A short description of this data set: yeast display, Sf9 membrane polyspecificity reagent, FACS + sequencing; frameworks hold sequencing errors. The method in brief:
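Synthetic nanobody libraries on Saccharomyces cerevisiae BJ5465 were galactose-induced for 36–48 hours, stained 1 hour at 4 °C with 10% biotinylated, detergent-solubilized Sf9 membrane reagent and enriched on streptavidin microbeads. FACS then separated cells into low and high (top ~1%) gates by anti-HA (expression) and streptavidin (reagent binding) fluorescence. Genes were colony-PCR amplified, MiSeq 2 × 250 sequenced and CDR-length filtered. A clone's polyreactivity label is that of its gate of origin.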
In the case of “QVQLVESGGGLVQAGGSLRLSCAASGFTLVKYVMGWYRQAPGKERELVAAINRSGTSTYYADSVKGRFTISRDNAKNTVYLQMNCLKPDDTAVYYCAADRSRNFDWGQGTQVTVSS”, the “polyreactivity (PSR sort gate)” value is reported as “high polyreactivity”. The value for “QVQLVESGGGLVQAGGSLRLSCAASGFTLWLNAMGWYRQAPGKERELLAAITTSDDGTYYADSVKGRFTISRDNAKNTVYLQMNSLKPEETAVYYCAADYYSVQYDYWGQGTQVTVSS” was “low polyreactivity”; that for “QVQLVESGGGLVQAGGSLRLSCAASGFTLWLYAMGWYRQAPGKERELVATISYRGDSTYYADSVKGRFTISRDNAKNTVYLQMNSLKPEDTAVYYCARRYTHTGRYYYWGQGTQVTVSS” was “high polyreactivity”; that for “QVQLVESGGGLVQAGGSLRLSCAASGFTLWYYAMGWYRQAPGKERELVAGINSGGRTYYADSVKGRFTISRDNAKNTVYLQMNSLKPEDTAVYNCNARAWSSISHNSYIMDYWGQGTQVTVSS” was “high polyreactivity”.

With “QVQLVESGGGLVQAGGSLRLSCAASGFTLYRNAMGWNRQAPGKERELVAAISSSGGRTYYADSVKGRFTISRDNAKNTVYLQMNSLKPEDTAVYYCAADFYRYGPQLGYWGQATQVTVSS”, the “polyreactivity (PSR sort gate)” value is given as “high polyreactivity”.

For the sequence “QVQLVESGGGLVQAGGSLRLSCAASGFTPGNVMGWYRQAPGKERELVAAISWSGDSTYYADSVKGRFTISRDNAKNTVYLQMNSLKPEDTAVYYCAARVVGSYRKTYPYGLYYWGQGTQVTVSS”, the “polyreactivity (PSR sort gate)” value was “high polyreactivity”. With “QVQLVESGGGLVQAGGSLRLSCAASGFTSCDNDMGWYRQAPGKERELVAAISRGGSTNYADSVKGRFTISRDNAKNTVYLQMNSLKPEDTAVYYCATAAVTPVWYDYWGKGTQVTVSS”, the “polyreactivity (PSR sort gate)” value is given as “low polyreactivity”. To “QVQLVESGGGLVQAGGSLRLSCAASGFTSRRYVMGWYRQAPGKERELVAAISSRGTSTYYADSVKGRFTISRDNAKNTVYLKMNSLKPEDTAVYYCAAVIRGRTRWLKYDYWGQGTQGTVSS” belongs “high polyreactivity”. As to “QVQLVESGGGLVQAGGSLRLSCAASGFTSSRNAMGWYRQAPGKERELVAAISSGTSTNYADSVKGRFTISRDNAKNTVYLQMNSLKPEDTAVYYCAAGSYSRYLYSLYFDFDYWGQGTQVTVSS”, the “polyreactivity (PSR sort gate)” value was “low polyreactivity”.

Take “QVQLVESGGGLVQAGGSLRLSCAASGFTSSYYAMGWYRQAPGKERELVAAISSSGGSTYYADSVKGRFTISRDNAKNTVYLQMNSLKPEDTAVYYCAAARRERAGRQYDYWGQGTQVTVSS”: the “polyreactivity (PSR sort gate)” value is “low polyreactivity”. For the sequence “QVQLVESGGGLVQAGGSLRLSCAASGFTSWHNDMGRYRQATGKERELVAAIDTGTGTYYADSVKGRFTISRDNAKNTVYLQLYSLKPEDTAVYYCAKDDLLVVRIVWFDYWGLGTQVTVSS”, the “polyreactivity (PSR sort gate)” value is “low polyreactivity”. With “QVQLVESGGGLVQAGGSLRLSCAASGFTVGVYAMGWYRQAPGKERELVAAISSGGSTNYADSVKGRFTISRDNAKNTVYLQMNSLKPEDTAVYYCAADAVSGGQGTADYDYWGQGTQVTVSS”, the “polyreactivity (PSR sort gate)” value is on record as “low polyreactivity”. “QVQLVESGGGLVQAGGSLRLSCAASGFTVGVYAMGWYRQAPGKERELVAAISSGGSTNYADSVKGRFTISRDNAKNTVYLQMNSLKPEDTAVYYCAKDVWYLVYYHWKSNRVWQYDYWGQGTQVTVSS”: the “polyreactivity (PSR sort gate)” value is listed as “low polyreactivity”. In the case of “QVQLVESGGGLVQAGGSLRLSCAASGFTVGYYAMAWYRQAPGKERELVAAISYVGGTTYYADSVKGRFTISRDNAKKTVYLQMNSLKPEDTAVYYCATLYRGSVRYYYWGQGTQVTVSS”, the “polyreactivity (PSR sort gate)” value is “high polyreactivity”. The value for “QVQLVESGGGLVQAGGSLRLSCAASGFTVWYYAMGWYRQAPGKVRELVASISSIGGSTYYADSVKGRFTISRENAKNTVYLQMNSLKPEDTAVYYCAARYKFLRGVVRRDYWGQGTQVTVSS” was “high polyreactivity”; that for “QVQLVESGGGLVQAGGSLRLSCAASGFTYGANTMGWYRQAPGKERELVADISVRGDRTSYADSVKGRFTISRDNAKNTVYLPMNSLKPEDTAVYYCATDIYQHAKRRYDYWGQGTQVTVSS” was “low polyreactivity”; that for “QVQLVESGGGLVQAGGSLRLSCAASGFTYGINAMGWYRQAPGKERELVASISSGSSTTYADSVKGRFTISRDNATNTVYLQMISLKPEDTAVYYCNARPFHIYWRYDYWGQGTQVTVSS” was “low polyreactivity”. Take “QVQLVESGGGLVQAGGSLRLSCAASGFTYGRYAMGWYRQAPGKERELVAVISWSGVSTYYADSVKGRFTISRDNAKNTVYLQMNSLKPEDTAVYYCNKRSYHYPYGYDYWGQGTQVTVSS”: the “polyreactivity (PSR sort gate)” value was “high polyreactivity”. For the sequence “QVQLVESGGGLVQAGGSLRLSCAASGFTYLRYAMGWYRQAPGKERELVAAISFSGDTTNYADSVKGRFTISRDNAKNTVYLQMNSLKPEDTAVYYCAASYGGGYYSDRGYYYWGQGTQVTVSS”, the “polyreactivity (PSR sort gate)” value is on record as “low polyreactivity”. As to “QVQLVESGGGLVQAGGSLRLSCAASGFTYLYAMGWYRQAPGKESELDAAISYSGGSTYYADSVKGRFTISRDNAKNTVYLQMNSMKPEDTAVYYCAAGYGTVRGVSYDYWGQGTQVTVSS”, the “polyreactivity (PSR sort gate)” value is recorded as “low polyreactivity”. Regarding “QVQLVESGGGLVQAGGSLRLSCAASGFTYPPYAMGWYRQAPGKERELVAAISSAGSTKYADSVKGRFTISRDNAKNTVYLQMNSLKPEDTAVYYCAARWARSYDYWGQGTQVTVSS”, the “polyreactivity (PSR sort gate)” value is given as “low polyreactivity”.

For “QVQLVESGGGLVQAGGSLRLSCAASGGIDYTNAMGWYRQAPGKERELVAAIRKNGDSTNYADSVKGRFTISRDNAKNTVYLQMNSLKPEDTAVYYCNAELWPWAYDYWGQGTQVTVSS”, the “polyreactivity (PSR sort gate)” value is on record as “low polyreactivity”. “QVQLVESGGGLVQAGGSLRLSCAASGGIFALNDMGWYRQAPGKERELVAAINGAGTYYADSVKGRFTISRDNAKNTVYLQMNSLKPEETAVYYCARRWLHWEYARTWTRVEYDYWGQGTQVTVSS”: the “polyreactivity (PSR sort gate)” value is “low polyreactivity”. In the case of “QVQLVESGGGLVQAGGSLRLSCAASGGIFARNVMGWYRQAPGKERELVAAISGSGGSTYYADSVKGRFTISRDNAKKTVYLQMNSLKPEDTAVYYCAARTPGVSVYKDGYWGQGTQVTVSS”, the “polyreactivity (PSR sort gate)” value is listed as “low polyreactivity”.

For “QVQLVESGGGLVQAGGSLRLSCAASGGIFAVYAMGWYRQAPGKERELVAAITWRGGSTRYADSVKGRFTISRDNAKTTVYLQMNSLKPEDTAVYYCAVRSTGYPSRYYFWGQGTQVTVSS”, the “polyreactivity (PSR sort gate)” value is given as “high polyreactivity”.

Take “QVQLVESGGGLVQAGGSLRLSCAASGGIFDFYAMGWYRPAPGKERELVAAITRSGSSTFYADSVKGRFTLSRDNAKNTVDLQMNSLKPEDTAIYYCAADYSHLPIAWYYYWGQGTQVTVSS”: the “polyreactivity (PSR sort gate)” value is on record as “low polyreactivity”.

On to “QVQLVESGGGLVQAGGSLRLSCAASGGIFDFYAMGWYRQAPGKERELVAAITRSGSSTFYADSVKGRFTISRDNAKNTVYLQMNSLKPEDTAVYYCATRPTSDFVKRRVYEWLDYWGQGTQVTVSS”, for which the “polyreactivity (PSR sort gate)” value is given as “low polyreactivity”. To “QVQLVESGGGLVQAGGSLRLSCAASGGIFDRYAMGWYRQAPGKERELVAAITSGGSTNYADSVKGRFTISRDNAKNTVYLQMISLKPEDTAVYYCNADLGILSGVAEGPTFREYDYWGQGTQVTVSS” belongs “low polyreactivity”. With “QVQLVESGGGLVQAGGSLRLSCAASGGIFDTYAMGWYRQAPGKERELVAAISSTGGSSYYADSVKGRFTISRDNAKNTVYLQMNSLKPEDTAVYYCNAVLARFWRYRRWEYDYWGQGTQVTVSS”, the “polyreactivity (PSR sort gate)” value is listed as “high polyreactivity”. Turning to “QVQLVESGGGLVQAGGSLRLSCAASGGIFDVYAMGWYRQAPGKERELVAAITASGGSTYYADSVKGRFTISRDNAKNTVYLQMNSLKPEDTAVYYCNAYYYYLFHRYDYWGQGTQVTVSS”, the “polyreactivity (PSR sort gate)” value is on record as “low polyreactivity”.

Regarding “QVQLVESGGGLVQAGGSLRLSCAASGGIFERNDMGWYRQAPGKERELVAGISSVGSTNYADSVKGRFTISRDNAKNTVYLQMNSLKPEDTAVYYCAAPTKREFRYLRYDYWGQGTQVTVSS”, the “polyreactivity (PSR sort gate)” value was “low polyreactivity”.

As for “QVQLVESGGGLVQAGGSLRLSCAASGGIFGGYAMGWYRQAPGKAGALVAVITSGGSTYYADSVKGRFTISRDNAKNTVYLQMNSLKPEDTAVYYCAADGHSYSYSTYDYWGQGTQVTVSS”, the “polyreactivity (PSR sort gate)” value is reported as “low polyreactivity”.

For “QVQLVESGGGLVQAGGSLRLSCAASGGIFGPYAMGWYRQAPGKERELVATITRNGGSTRYADSVKGRFTISRDNAKNTVYLQMNSLKPEDTAVYYCAARGYLDMGYWGQGTQVTVSS”, the “polyreactivity (PSR sort gate)” value is listed as “high polyreactivity”. With “QVQLVESGGGLVQAGGSLRLSCAASGGIFGQYTMGWYRQAPGKERELVAGISKRGTLTRYADSVKGRFTISRDNAKNTVYLQMNSLKPEYSAVYYCNADYVGFFWEYDYWGQGTQVTVSS”, the “polyreactivity (PSR sort gate)” value is reported as “high polyreactivity”. The value for “QVQLVESGGGLVQAGGSLRLSCAASGGIFGSYAMAWYRQAPGKERELVAAISWTGGSTYYADSVKGRFTISRDNAKNTVYLQMNSLKPEDTAVYYCNADTYRRAQLRFNSWGQGTQVTVSS” was “low polyreactivity”; that for “QVQLVESGGGLVQAGGSLRLSCAASGGIFGYYVMGWYRQAAGNERELVAVITRGGSTNYADSVKGRFTISRDNAKNTVYLQMNSLKPEDTAVYYCAKDVPYRRVRSEYWGQGTQVTVSS” was “low polyreactivity”. With “QVQLVESGGGLVQAGGSLRLSCAASGGIFIKYAIGWYRPAPGKERELVAAITYSGGSTYYADSVKGRFTISRDNAKNTVYLQMNCLKPEDTAVYYCAADTLRQYDYEYWGQGTQVTVSS”, the “polyreactivity (PSR sort gate)” value is recorded as “high polyreactivity”.

For “QVQLVESGGGLVQAGGSLRLSCAASGGIFKAYAMGWYRQAPGKERELVAVITIGGRTTYADSVKGRFTISRDNAKNTVYLQMNSLKPEDTAVYYCAKTNYNWLSTAEHDYWGQGTQVTVSS”, the “polyreactivity (PSR sort gate)” value is recorded as “low polyreactivity”.

Regarding “QVQLVESGGGLVQAGGSLRLSCAASGGIFLDYVMGWYRPATGKQRELVAAISGSGGTNYADSVKGRFTISRDNAKNTVYLQMNSLKPEDTAVYYCAAVGYYSYSYYTKVGVDYWGQGTQVTVSS”, the “polyreactivity (PSR sort gate)” value is recorded as “high polyreactivity”. To “QVQLVESGGGLVQAGGSLRLSCAASGGIFLVYTMGWYRQAPGKEREMVAAITSGGSTKYADSVKGRFTISRDNAKNTVYFQMNSLKPEDTAVYYCAAGVQYARYQARYFYWGQGTPVTVSS” belongs “high polyreactivity”.
